Data reported in article PMC8384837, “Expanding the binding specificity for RNA recognition by a PUF domain”.

Experiments:
[1] = molecular target: T1, PUM1 PUF domain R3-THE R4-TFR (Homo sapiens, UniProt Q14671 828-1176, C935T;R936H;Q939E;N971T;H972F;Q975R); experiment: yeast three-hybrid, YBZ-1, SC-Leu-His + 0.5 mM 3-AT, 4 days; details: tags: N-Gal4 AD-HA kept; label: inside an RPR1-promoter hybrid RNA with tandem MS2 sites
How it was run: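 Pumilio-1 PUF domain libraries, randomized at the three base-contacting residues of each repeat, were co-expressed with matching RNA elements from a centromeric plasmid in strain YBZ-1, which carries a LexA–MS2 coat fusion and a HIS3 reporter. Transformants grew for four days on SC-Leu (input) or on SC-Leu-His + 0.5 mM 3-AT (selection), and the repeat regions were PCR-amplified and Illumina-sequenced. The interaction score is the log change in variant frequency from input to selection. That logarithm is base 2, with a pseudocount of 1 where a variant was absent.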

PUM1 PUF domain [2] = molecular target: T2, PUM1 PUF domain (Homo sapiens, UniProt Q14671 828-1176); experiment: EMSA; 10 mM HEPES pH 7.3, 50 mM NaCl, 2 mM DTT, 0.05% Tween 20, 0.1 mg/mL BSA, 0.1 mg/mL tRNA; on ice; 10 nM RNA, 0-1 uM protein; details: tags: GST cleaved (HRV3C); label: 32P
T2 sequence (Q14671 828-1176): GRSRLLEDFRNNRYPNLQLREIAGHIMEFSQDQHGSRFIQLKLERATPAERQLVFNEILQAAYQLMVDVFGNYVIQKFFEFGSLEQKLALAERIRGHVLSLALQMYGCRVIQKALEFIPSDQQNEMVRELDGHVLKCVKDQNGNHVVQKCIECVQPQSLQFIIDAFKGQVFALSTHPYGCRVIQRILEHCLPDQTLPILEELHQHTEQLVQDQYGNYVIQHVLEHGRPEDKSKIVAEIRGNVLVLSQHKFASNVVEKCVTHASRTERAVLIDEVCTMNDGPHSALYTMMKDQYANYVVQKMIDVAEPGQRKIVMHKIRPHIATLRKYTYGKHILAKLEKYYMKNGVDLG

[3] = molecular target: T1, PUM1 PUF domain R3-THE R4-TFR; experiment: as above; details: tags: GST cleaved (HRV3C); label: 32P
[4] = molecular target: PUM1 PUF domain R1-QFR R2-VFQ (Homo sapiens, UniProt Q14671 828-1176, S863Q;R864F;Q867R;N899V;Y900F); experiment: as above; details: tags: GST cleaved (HRV3C); label: 32P
Chain of PUM1 PUF domain R1-QFR R2-VFQ (Q14671 828-1176 S863Q/R864F/Q867R/N899V/Y900F): as the sequence (Q14671 828-1176) above, with S36Q, R37F, Q40R, N72V, Y73F counted along it

PUM1 PUF domain [5] = molecular target: T2, PUM1 PUF domain; experiment: as above; details: tags: GST cleaved (HRV3C); label: 32P; remark: listed apart in the source
[6] = molecular target: Pumilio-1 PUF domain wild type (human, UniProt Q14671 828-1168); experiment: EMSA; 10 mM HEPES pH 7.3, 50 mM NaCl, 2 mM DTT, 0.05% Tween 20, 0.1 mg/ml BSA, 0.1 mg/ml yeast tRNA; ~10 nM RNA, 0-1 uM protein, 1 h on ice; 1.2% agarose gel, 1x TBE, room temperature; details: protein: recombinant; tags: N-terminal GST (pGEX-6P-1) removed by HRV3C protease; label: 5' 32P
Chain of Pumilio-1 PUF domain wild type (Q14671 828-1168): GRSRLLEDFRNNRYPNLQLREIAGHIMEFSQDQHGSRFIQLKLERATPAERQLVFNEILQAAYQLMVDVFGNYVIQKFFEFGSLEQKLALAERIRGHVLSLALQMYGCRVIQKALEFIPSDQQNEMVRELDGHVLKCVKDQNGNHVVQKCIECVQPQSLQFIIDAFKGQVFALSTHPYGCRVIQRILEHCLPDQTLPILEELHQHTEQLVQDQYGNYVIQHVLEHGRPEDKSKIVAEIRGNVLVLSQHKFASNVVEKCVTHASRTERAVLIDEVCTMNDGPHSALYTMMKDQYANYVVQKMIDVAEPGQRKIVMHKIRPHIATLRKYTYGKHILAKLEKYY

T1 sequence (Q14671 828-1176 C935T/R936H/Q939E/N971T/H972F/Q975R): as the sequence (Q14671 828-1176) above, with C108T, R109H, Q112E, N144T, H145F, Q148R counted along it

B1: UGUACGUA (ssRNA)
RNA: GGCUAGAACUAGUGGAUCCCCCGGCGCCCGGCGGCUCGAGCCCGGGUAAGUGUACGUAGUCUGCAUGCCGCCGGGCGCCAUGCCUGCAGGUCGACUCUAGAAAACAUG
- binding signal [1]: 6.65 log2 enrichment (interaction score)

Binder: GGUAAGUGUAAAUAGUCUGCAU (ssRNA) [UGUAAAUA]
- Kd (PUM1 PUF domain [2]): ~80 nM
- qualitative [3]: > 1000 nM
- qualitative [4]: > 1000 nM

Binder: GGUAAGUGUACGUAGUCUGCAU (ssRNA)
- qualitative (PUM1 PUF domain [5]): > 1000 nM

Binder: GGUAAGUGUAAAACGUCUGCAU (ssRNA) [UGUAAAAC]
- qualitative (PUM1 PUF domain [5]): > 1000 nM

Binder: GGUAAGUGUAAAUAGUCUGCAU (ssRNA) [wild-type NRE RNA]
- Kd [6]: ~80 nM

Binder: GGUAAGUGUAAAACGUCUGCAU (ssRNA) [QFR/VFQ target RNA]
- binding result [6]: no binding
